Patent publication US20080182978A1, “ANTI-NGF ANTIBODIES AND METHODS USING SAME” (RINAT NEUROSCIENCE CORP, priority 2002, published 2008)
Entries after “also recorded” stand apart in the source; their conditions may differ.

Key:
NT4/5 = target: T1, NT4/5 (Homo sapiens, UniProt P34130); experiment: Mouse E17 nodose neuron survival assay, NT4/5; type: cell-based; details: NT4/5 400 pM; antibody up to 200 nM; 48 hours
T1 sequence (P34130 81-210): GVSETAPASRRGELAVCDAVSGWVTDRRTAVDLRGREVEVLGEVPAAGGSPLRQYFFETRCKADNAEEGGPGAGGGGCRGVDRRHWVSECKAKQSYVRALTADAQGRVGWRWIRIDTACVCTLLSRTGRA
Description: The ability of antibody E3 to specifically block NGF activity was also evaluated by measurement of the capacity of the antibody to inhibit survival of mouse nodose E17 neurons in the presence of saturating concentrations of BDNF or NT4/5. Survival of nodose neurons is supported by BDNF or NT4/5; therefore, survival of these neurons is a sensitive assay to evaluate the BDNF or NT4/5-blocking ability of the anti-NGF antagonist antibody.
The survival assay was conducted as follows: time mated pregnant Swiss Webster female mice were euthanised by CO2 inhalation. The uterine horns were removed and the embryos (at embryonic day 17 or 18) were extracted and decapitated. The trigeminal and nodose ganglia were dissected and cleaned. The ganglia were then trypsinised, mechanically dissociated and plated at a density of 100-300 cells per well in defined, serum-free medium in 4-well plates (Greiner) coated with poly-L-ornithine and laminin.
E17 nodose neurons were grown either in the absence of added neurotrophic factors (negative control), or with saturating concentrations of BDNF (400 pM) (positive control) or NT4/5 (400 pM) or NGF unrelated growth factor […]. High concentrations of neurotrophins were used, as the goal of this experiment was to test specificity of the antibodies. […]

human NGF = human NGF (Homo sapiens, UniProt P01138); experiment: BIAcore screening assay of Fab library clones (koff); type: binding; details: Table 8: CDR L3 H3 combination mutations, H19-L129 template (H1H2L1L2 matured)
Summary of the method: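 Fab library clones expressed in E. coli (1 mM IPTG, 5 h, 30° C), lysed by freeze-thaw in HBS-EP; lysates injected at 50 μl/min for 2 min over CM5-immobilised human NGF (500-600 RU). Single-exponential koff fitted from 10-15 min dissociation; Fab presence checked via anti-penta-His channel.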

Chain of human NGF (P01138 122-241): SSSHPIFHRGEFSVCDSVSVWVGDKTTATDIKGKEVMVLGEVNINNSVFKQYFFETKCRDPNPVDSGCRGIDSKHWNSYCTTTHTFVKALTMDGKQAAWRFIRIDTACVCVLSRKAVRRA

koff (human NGF): 1.2e-05 s⁻¹
B1: E3: humanized, affinity matured anti-NGF antagonist antibody; variable regions SEQ ID NO:1 and 2; human IgG2a (A330P331 to S330S331), kappa (antibody, V domains shown)
VH: QVQLQESGPGLVKPSETLSLTCTVSGFSLIGYDLNWIRQPPGKGLEWIGIIWGDGTTDYNSAVKSRVTISKDTSKNQFSLKLSSVTAADTAVYYCARGGYWYATSYYFDYWGQGTLVTVS
VL: DIQMTQSPSSLSASVGDRVTITCRASQSISNNLNWYQQKPGKAPKLLIYYTSRFHSGVPSRFSGSGSGTDFTFTISSLQPEDIATYYCQQEHTLPYTFGQGTKLEIKRT
modifications: human IgG2a constant (A330S/P331S) and kappa constant missing
survival of E17 nodose neurons promoted by NT4/5 (NT4/5): had no effect; also recorded: did not inhibit
